In this test the target is T1, Human PD-1-His protein (Cat. #10377H08H, Sino Biological) (human, UniProt Q15116 25-167).
T1 construct: Bought protein; also called hPD-1-His; hu PD-1-his; not shown: His tag of the bought protein
Put plainly: SPR (Biacore), antibody captured on Protein A chip, PD-1 in flow. From the text: IgG was affinity captured by using a Protein A biosensor chip (Cat. #29127556, GE). Human PD-1 antigen (Cat. #10377H08H, Sino Biological) and Cyno PD-1 antigen (purchased from Sino Biological) flowed across the surface of the chip, and the binding and dissociation curves were obtained by real time detection of PD-1 antibody and antigen PD-1 reaction signals by a Biacore T200 instrument. After the dissociation of each experimental cycle was completed, the biosensor chip was washed and regenerated with 10 mM Glycine-HCl pH 1.5 buffer. The experimental buffer system was 1×HBS-EP buffer solution (Cat #BR-1001-88, GE). After the experiment, GE Biacore T200 Evaluation version 3.0 software was used to fit the data with a (1:1) Langmuir model, and the affinity value was obtained.
In general terms: In SPR one partner is held on a chip, and binding of the other changes the refractive index at the surface.

Numbering of substitutions follows the chain as printed. Numbers in names are those of the source.

Here are results for 21 molecules from US20220098304A1 (JIANGSU HENGRUI MEDICINE, published 2022).

T1 sequence (Q15116 25-167 limits assumed): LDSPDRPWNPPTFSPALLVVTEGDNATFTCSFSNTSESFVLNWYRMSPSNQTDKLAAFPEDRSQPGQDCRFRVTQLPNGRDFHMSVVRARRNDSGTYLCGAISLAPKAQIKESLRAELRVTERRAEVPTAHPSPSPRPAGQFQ

B1: Hu32a-29.IgG4AA (antibody, V domains shown)
VH: EVQLVQSGAEVKKPGSSVKVSCKASGFTFSDYEIHWVRQAPGQGLEWMGLFDPETGGIVYNQKFKGRVTLTADKSTSTAYMELSSLRSEDTAVYYCTREGYNRDWYFDVWGQGTTVTVSS
VL: DIVMTQTPLSLPVTPGEPASISCRSSQSLVHSTGNTYLEWYLQKPGQSPQLLIYKVSNRFSGVPDRFSGSGSGTDFTLKISRVEAEDVGVYYCFQGSHVPYTFGGGTKVEIKR
notes: Full-length IgG4-AA, kappa
The term Kd denotes the concentration at which binding is half-saturated. Higher therefore signals weaker binding. For orientation: koff means a measure of how fast the partners let go of each other. The term kon denotes the second-order rate constant of association. A lower kon goes with slower complex formation. In turn, B1 showed a Kd of 7.86 nM, a koff of 0.00062 s⁻¹ and a kon of 78900 M⁻¹ s⁻¹.

B2: Hu32a-43.IgG4AA (antibody, V domains shown)
VH: B1 VH with G26D
VL: B1 VL
notes: Full-length IgG4-AA, kappa
For the molecule B2, the Kd amounted to 8.16 nM, the koff was 0.000685 s⁻¹ and the kon came out at 83900 M⁻¹ s⁻¹.

B3: Hu32a-57.IgG4AA (antibody, V domains shown)
VH: B1 VH with M48I, V68A, L83F
VL: B1 VL
notes: Full-length IgG4-AA, kappa
On to B3, for which the dissociation constant (Kd) is 7.85 nM, the koff was 0.000624 s⁻¹ and the kon came out at 79400 M⁻¹ s⁻¹.

B4: Hu32a-15.IgG4AA (antibody, V domains shown)
VH: B1 VH with F27G, L70I, T97A
VL: B1 VL
notes: Full-length IgG4-AA, kappa
Regarding B4, the Kd was 51.4 nM, the koff was 0.00252 s⁻¹ and the kon was 48900 M⁻¹ s⁻¹.

B5: Hu32a-71.IgG4AA (antibody, V domains shown)
VH: B1 VH with G26D, S30T, M48I, V68A, L83F
VL: B1 VL
notes: Full-length IgG4-AA, kappa
The molecule B5 yielded a Kd of 4.61 nM, a koff of 0.000396 s⁻¹ and a kon of 86000 M⁻¹ s⁻¹.

B6: murine antibody M33 (antibody, V domains shown)
VH: KVMLVESGGGLVKPGGSLKLSCAASGFTFSSYAMSWVRQTPEKRLEWVATISGGGVDTYYQDNVQGRFTISRDNAKNTLYLQMSSLRSEDTALYYCASPYGHGYFDVWGTGTTVTVSS
VL: DIQMTQTTSSLSASLGDRVTISCRASQDINNFLNWYQQKPDGTVKLLIYYTSSLHSGVPSRFSGSGSGTDYSLTISNLEQEDIATYFCQQGNTLPWTFGGGTKLEIK
Consider B6, for which the Kd turned out to be 0.737 nM, the koff stood at 0.000227 s⁻¹ and the on-rate constant (kon) was found to be 308000 M⁻¹ s⁻¹.

B7: Hu23-1.IgG4AA (antibody)
heavy: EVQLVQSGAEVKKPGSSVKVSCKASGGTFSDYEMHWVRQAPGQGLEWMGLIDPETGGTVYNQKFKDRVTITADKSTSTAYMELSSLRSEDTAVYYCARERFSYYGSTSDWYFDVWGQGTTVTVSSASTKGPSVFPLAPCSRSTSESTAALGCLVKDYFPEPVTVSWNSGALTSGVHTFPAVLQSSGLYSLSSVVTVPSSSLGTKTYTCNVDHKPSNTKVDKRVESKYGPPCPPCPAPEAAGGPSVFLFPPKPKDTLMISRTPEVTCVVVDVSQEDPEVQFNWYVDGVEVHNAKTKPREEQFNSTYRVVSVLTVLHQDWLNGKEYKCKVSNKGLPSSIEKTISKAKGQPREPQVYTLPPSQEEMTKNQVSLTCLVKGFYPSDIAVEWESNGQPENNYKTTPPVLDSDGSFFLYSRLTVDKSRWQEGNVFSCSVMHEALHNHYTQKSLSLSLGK
light: DIVMTQTPLSLPVTPGEPASISCRSSQSLVHSNGNTYLEWYLQKPGQSPQLLIYKVSNRFSGVPDRFSGSGSGTDFTLKISRVEAEDVGVYYCFQGSHVPYTFGGGTKVEIKRTVAAPSVFIFPPSDEQLKSGTASVVCLLNNFYPREAKVQWKVDNALQSGNSQESVTEQDSKDSTYSLSSTLTLSKADYEKHKVYACEVTHQGLSSPVTKSFNRGEC
notes: Full-length IgG4-AA (S228P, F234A, L235A), kappa
Molecule B7 showed a Kd of 3.2 nM, a koff of 0.00011 s⁻¹ and an on-rate constant (kon) of 34300 M⁻¹ s⁻¹.

B8: Hu23-2.IgG4AA (antibody)
heavy: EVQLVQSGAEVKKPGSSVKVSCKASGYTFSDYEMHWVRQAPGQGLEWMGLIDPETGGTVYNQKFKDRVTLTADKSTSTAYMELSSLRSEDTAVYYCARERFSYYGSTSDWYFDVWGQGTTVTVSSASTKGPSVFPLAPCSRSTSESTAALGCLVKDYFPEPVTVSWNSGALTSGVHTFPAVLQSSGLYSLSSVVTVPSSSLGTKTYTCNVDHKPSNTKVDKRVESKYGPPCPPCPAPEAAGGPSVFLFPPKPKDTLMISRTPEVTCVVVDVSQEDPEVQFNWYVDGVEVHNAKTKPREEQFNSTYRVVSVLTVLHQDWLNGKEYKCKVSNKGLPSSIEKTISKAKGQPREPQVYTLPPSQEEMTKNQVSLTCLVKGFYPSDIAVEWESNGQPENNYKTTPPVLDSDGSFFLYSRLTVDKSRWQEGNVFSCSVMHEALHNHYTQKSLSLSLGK
light: B7 light
notes: Full-length IgG4-AA, kappa
As for B8, the affinity, expressed as Kd, was 5.86 nM; the koff turned out to be 0.000161 s⁻¹; the kon worked out at 27400 M⁻¹ s⁻¹.

B9: Hu23-3.IgG4AA (antibody)
heavy: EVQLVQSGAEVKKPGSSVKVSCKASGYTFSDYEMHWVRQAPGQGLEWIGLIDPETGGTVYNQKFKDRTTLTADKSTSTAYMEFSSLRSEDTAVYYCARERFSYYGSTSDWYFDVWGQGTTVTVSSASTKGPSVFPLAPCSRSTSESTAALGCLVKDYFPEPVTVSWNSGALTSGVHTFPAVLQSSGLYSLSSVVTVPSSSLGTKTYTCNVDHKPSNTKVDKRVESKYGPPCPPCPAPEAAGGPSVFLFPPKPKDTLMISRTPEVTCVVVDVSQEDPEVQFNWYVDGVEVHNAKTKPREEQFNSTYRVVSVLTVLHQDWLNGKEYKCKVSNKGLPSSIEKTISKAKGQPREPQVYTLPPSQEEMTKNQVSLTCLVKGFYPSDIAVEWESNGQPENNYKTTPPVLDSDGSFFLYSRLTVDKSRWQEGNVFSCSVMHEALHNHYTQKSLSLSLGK
light: B7 light
notes: Full-length IgG4-AA, kappa
Molecule B9 returned a Kd of 5.46 nM, a koff of 0.00016 s⁻¹ and a kon of 29300 M⁻¹ s⁻¹.

B10: Hu23-9.IgG4AA (antibody, V domains shown)
VH: EVQLVQSGAEVKKPGSSVKVSCKASGGTFSDYEMHWVRQAPGQGLEWMGLIDPETGGTVYNQKFKDRVTITADKSTSTAYMELSSLRSEDTAVYYCARERFSYYGSTSDWYFDVWGQGTTVTVSS
VL: B1 VL with T33Q
notes: Full-length IgG4-AA, kappa; also called Hu23LCDR1 (N28Q)
With B10, the Kd stood at 2.15 nM, the koff is 0.000132 s⁻¹ and the kon came out at 61600 M⁻¹ s⁻¹.

B11: Hu23-10.IgG4AA (antibody, V domains shown)
VH: B10 VH
VL: B1 VL with T33L
notes: Full-length IgG4-AA, kappa; also called Hu23LCDR1 (N28L)
The molecule B11 displayed a Kd of 2.77 nM, a koff of 0.000153 s⁻¹ and an on-rate constant (kon) of 55100 M⁻¹ s⁻¹.

B12: Hu23-4.IgG4AA (antibody)
heavy: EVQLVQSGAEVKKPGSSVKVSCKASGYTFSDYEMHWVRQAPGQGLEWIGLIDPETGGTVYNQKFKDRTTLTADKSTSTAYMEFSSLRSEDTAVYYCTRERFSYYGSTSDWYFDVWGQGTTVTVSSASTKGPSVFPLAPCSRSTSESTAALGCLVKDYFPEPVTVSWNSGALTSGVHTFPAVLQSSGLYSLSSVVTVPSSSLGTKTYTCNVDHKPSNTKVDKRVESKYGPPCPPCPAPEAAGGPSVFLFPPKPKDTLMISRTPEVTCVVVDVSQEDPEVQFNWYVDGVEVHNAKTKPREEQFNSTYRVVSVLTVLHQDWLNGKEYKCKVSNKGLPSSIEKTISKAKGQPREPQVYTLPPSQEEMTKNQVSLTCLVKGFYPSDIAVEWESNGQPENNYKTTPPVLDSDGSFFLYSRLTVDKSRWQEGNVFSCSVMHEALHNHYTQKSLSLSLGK
light: B7 light
notes: Full-length IgG4-AA, kappa
The molecule B12 returned a dissociation constant Kd of 3.39 nM, a koff of 0.000144 s⁻¹ and a kon of 42400 M⁻¹ s⁻¹.

B13: Hu23-14.IgG4AA (antibody, V domains shown)
VH: B10 VH
VL: B1 VL with T33N, G34V
notes: Full-length IgG4-AA, kappa; also called Hu23LCDR1 (G29V)
B13 had a Kd of 2.22 nM, a koff of 0.000161 s⁻¹ and a kon of 72300 M⁻¹ s⁻¹.

B14: Hu23-5.IgG4AA (antibody)
heavy: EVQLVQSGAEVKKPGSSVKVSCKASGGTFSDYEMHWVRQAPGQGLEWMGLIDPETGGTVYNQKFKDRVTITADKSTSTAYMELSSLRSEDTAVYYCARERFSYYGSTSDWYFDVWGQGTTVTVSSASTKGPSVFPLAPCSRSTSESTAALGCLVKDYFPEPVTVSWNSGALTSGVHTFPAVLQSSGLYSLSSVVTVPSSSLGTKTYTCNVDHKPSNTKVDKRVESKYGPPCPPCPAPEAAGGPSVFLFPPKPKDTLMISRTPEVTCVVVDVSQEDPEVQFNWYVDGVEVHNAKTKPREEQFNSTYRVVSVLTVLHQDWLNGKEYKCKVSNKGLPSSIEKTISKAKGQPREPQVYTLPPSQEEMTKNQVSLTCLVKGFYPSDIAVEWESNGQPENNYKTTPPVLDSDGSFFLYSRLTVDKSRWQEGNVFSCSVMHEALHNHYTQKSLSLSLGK
light: B7 light with I2G
notes: Full-length IgG4-AA, kappa
On to B14, for which the affinity, expressed as Kd, was 3.82 nM; the koff came out at 0.000114 s⁻¹; the kon was found to be 29900 M⁻¹ s⁻¹.

B15: Hu23-7.IgG4AA (antibody)
heavy: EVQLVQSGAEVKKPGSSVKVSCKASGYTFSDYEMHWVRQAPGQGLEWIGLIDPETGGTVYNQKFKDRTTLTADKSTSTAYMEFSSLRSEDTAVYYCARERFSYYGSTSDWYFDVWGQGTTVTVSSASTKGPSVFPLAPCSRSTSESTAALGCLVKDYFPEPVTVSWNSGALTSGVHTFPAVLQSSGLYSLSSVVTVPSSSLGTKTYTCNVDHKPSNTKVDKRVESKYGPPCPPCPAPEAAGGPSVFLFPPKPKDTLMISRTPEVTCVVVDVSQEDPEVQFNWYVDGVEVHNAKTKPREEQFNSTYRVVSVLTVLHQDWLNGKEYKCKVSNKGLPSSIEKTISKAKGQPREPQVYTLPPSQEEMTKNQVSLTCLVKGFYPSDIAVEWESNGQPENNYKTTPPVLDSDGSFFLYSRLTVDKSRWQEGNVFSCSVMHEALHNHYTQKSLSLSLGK
light: B7 light with I2G
notes: Full-length IgG4-AA, kappa
On to B15, for which the Kd was determined as 5.97 nM, the koff is 0.000166 s⁻¹ and the kon was found to be 27700 M⁻¹ s⁻¹.

B16: Hu23-6.IgG4AA (antibody)
heavy: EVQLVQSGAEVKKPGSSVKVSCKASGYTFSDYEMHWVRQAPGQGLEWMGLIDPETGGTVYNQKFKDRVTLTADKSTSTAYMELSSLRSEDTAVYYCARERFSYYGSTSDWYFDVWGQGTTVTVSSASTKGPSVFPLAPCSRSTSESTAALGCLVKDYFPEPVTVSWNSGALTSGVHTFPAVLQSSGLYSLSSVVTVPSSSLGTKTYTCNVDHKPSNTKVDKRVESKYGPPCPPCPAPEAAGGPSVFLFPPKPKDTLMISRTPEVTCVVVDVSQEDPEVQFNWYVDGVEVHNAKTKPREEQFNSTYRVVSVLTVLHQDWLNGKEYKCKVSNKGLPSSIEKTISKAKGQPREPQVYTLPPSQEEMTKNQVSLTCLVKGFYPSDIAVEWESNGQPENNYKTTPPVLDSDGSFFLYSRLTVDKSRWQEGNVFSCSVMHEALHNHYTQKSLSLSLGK
light: B7 light with I2G
notes: Full-length IgG4-AA, kappa
Regarding B16, the Kd is 5.57 nM, the koff was found to be 0.000155 s⁻¹ and the kon was determined as 27900 M⁻¹ s⁻¹.

B17: Hu23-12.IgG4AA (antibody, V domains shown)
VH: B10 VH
VL: B1 VL with T33D
notes: Full-length IgG4-AA, kappa; also called Hu23LCDR1 (N28D)
B17 came in with a Kd of 2.02 nM, a koff of 0.00011 s⁻¹ and a kon of 54500 M⁻¹ s⁻¹.

B18: Hu23-8.IgG4AA (antibody)
heavy: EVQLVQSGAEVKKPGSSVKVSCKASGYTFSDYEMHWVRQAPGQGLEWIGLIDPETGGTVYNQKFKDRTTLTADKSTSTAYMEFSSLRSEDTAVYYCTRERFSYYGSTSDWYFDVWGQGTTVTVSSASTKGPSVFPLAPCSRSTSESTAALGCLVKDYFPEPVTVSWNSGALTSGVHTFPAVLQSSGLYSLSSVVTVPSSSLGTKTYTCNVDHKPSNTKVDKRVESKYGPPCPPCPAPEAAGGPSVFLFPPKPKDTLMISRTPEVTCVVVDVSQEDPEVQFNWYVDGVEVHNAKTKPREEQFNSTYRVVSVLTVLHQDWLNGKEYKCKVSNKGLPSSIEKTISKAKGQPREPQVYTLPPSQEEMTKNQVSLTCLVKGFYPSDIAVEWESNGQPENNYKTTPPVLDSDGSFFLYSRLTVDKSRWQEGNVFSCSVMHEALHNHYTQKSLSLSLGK
light: B7 light with I2G
notes: Full-length IgG4-AA, kappa
Turning to B18, the affinity, expressed as Kd, was 3.56 nM; the koff worked out at 0.000147 s⁻¹; the kon is 41100 M⁻¹ s⁻¹.

B19: Hu23-13.IgG4AA (antibody, V domains shown)
VH: B10 VH
VL: B1 VL with T33N, G34A
notes: Full-length IgG4-AA, kappa; also called Hu23LCDR1 (G29A)
In the case of B19, the Kd came out at 2.88 nM, the koff is 0.000122 s⁻¹ and the kon came to 42400 M⁻¹ s⁻¹.

B20: murine antibody M23 (antibody, V domains shown)
VH: QVQLQQSGAELVRPGASVTLSCKASGYTFTDYEMHWVKQTPIHGLEWIGLIDPETGGTVYNQKFKDKTILTADKSSSTAYMEFRSLTSEDSAVYHCTRERFSYYGSTSDWYFDVWGTGTTVTVSS
VL: DGLMTQTPLSLPVSLGDHASISCRSSQSLVHSNGNTYLEWYLQKPGQSPKLLIYKVSNRFSGVPDRFSGSGSGTDFTLKISRVEAEDLGIYYCFQGSHVPYTFGGGTKLEIK
With B20, the Kd was found to be 2.89 nM, the koff was found to be 0.000132 s⁻¹ and the kon was 45700 M⁻¹ s⁻¹.

B21: murine antibody M32 (antibody, V domains shown)
VH: QVQLQQSGAELVRPGASVTLSCKASDFTFTDYEIHWVKQTPVHGLEWIGLFDPETGGIVYNQKFKGKAILTADKSSNTAYMEFRSLTSEDSAVYYCTREGYNRDWYFDVWGTGTTVTVSS
VL: B20 VL with G2V, H18Q, L29I, T102A
For the molecule B21, the affinity, expressed as Kd, was 5.3 nM; the koff stood at 0.000415 s⁻¹; the kon is 78300 M⁻¹ s⁻¹.
